Test results published in article PMC5924911.

Tests used:
[1] = target: VSD-I of human NaV1.4 (residues L114–S246) (human) (UniProt P35499); assay: NMR titration
[2] = target: NaV1.4 p.R222G channel (UniProt P35499)
[3] = target: NaV1.4 p.R222W channel (UniProt P35499)

Substance: Hm-3 toxin from the crab spider Heriaeus melloteei (peptide)
- Kd [1]: 6.2 µM
- percent of guanidinium-enhanced IGP suppressed by 10 μM Hm-3 at −80 mV, oocytes [2]: 64%
- percent of guanidinium-enhanced IGP suppressed by 10 μM Hm-3 at −80 mV, oocytes [3]: 67%
